Test results reported in publication PMC10397247.

How the values were obtained:
Experiment in all cases: two-hybrid library CCmax;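 further: natural log of median RNA to DNA barcode read ratio; higher means stronger binding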
P1-AA = target: T1, P1-AA
T1 chain: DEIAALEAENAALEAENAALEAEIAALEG

P10-AA = target: T2, P10-AA; details: mean of both orientations
T2 chain: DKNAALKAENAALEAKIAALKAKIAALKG

P11-AA = target: T3, P11-AA; details: mean of both orientations
T3 chain: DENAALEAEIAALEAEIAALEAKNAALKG

P12-AA = target: T4, P12-AA; details: mean of both orientations
T4 chain: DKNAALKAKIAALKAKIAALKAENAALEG

P2-AA-12HAA-D = target: T5, P2-AA-12HAA-D; details: mean of both orientations
T5 chain: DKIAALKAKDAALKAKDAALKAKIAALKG

P2-AA-12HAA-E = target: T6, P2-AA-12HAA-E; details: mean of both orientations
T6 chain: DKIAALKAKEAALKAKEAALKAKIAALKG

P2-AA-12HAA-H = target: T7, P2-AA-12HAA-H; details: mean of both orientations
T7 chain: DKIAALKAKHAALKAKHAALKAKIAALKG

P2-AA-12HAA-I = target: T8, P2-AA-12HAA-I; details: mean of both orientations
T8 chain: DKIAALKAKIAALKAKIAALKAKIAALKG

P2-AA-12HAA-K = target: T9, P2-AA-12HAA-K; details: mean of both orientations
T9 chain: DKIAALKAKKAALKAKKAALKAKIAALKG

P2-AA-12HAA-L = target: T10, P2-AA-12HAA-L; details: mean of both orientations
T10 chain: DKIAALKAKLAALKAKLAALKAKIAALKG

P2-AA-12HAA-R = target: T11, P2-AA-12HAA-R; details: mean of both orientations
T11 chain: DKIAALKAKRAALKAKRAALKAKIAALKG

P2-AA-12HAA-S = target: T12, P2-AA-12HAA-S; details: mean of both orientations
T12 chain: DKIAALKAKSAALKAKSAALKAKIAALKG

P2-AA-12HAA-T = target: T13, P2-AA-12HAA-T; details: mean of both orientations
T13 chain: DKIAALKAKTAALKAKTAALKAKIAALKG

P2-AA-12HAA-V = target: T14, P2-AA-12HAA-V; details: mean of both orientations
T14 chain: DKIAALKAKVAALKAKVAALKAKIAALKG

P2-AA-12HAA-Y = target: T15, P2-AA-12HAA-Y; details: mean of both orientations
T15 chain: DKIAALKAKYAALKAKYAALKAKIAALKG

P2-AA-12HGe-A = target: T16, P2-AA-12HGe-A; details: mean of both orientations
T16 chain: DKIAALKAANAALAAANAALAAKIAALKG

P2-AA-12HGe-D = target: T17, P2-AA-12HGe-D; details: mean of both orientations
T17 chain: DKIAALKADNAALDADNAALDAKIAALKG

P2-AA-12HGe-E = target: T18, P2-AA-12HGe-E; details: mean of both orientations
T18 chain: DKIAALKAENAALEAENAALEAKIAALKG

P2-AA-12HGe-H = target: T19, P2-AA-12HGe-H; details: mean of both orientations
T19 chain: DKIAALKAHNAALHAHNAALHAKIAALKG

P2-AA-12HGe-M = target: T20, P2-AA-12HGe-M; details: mean of both orientations
T20 chain: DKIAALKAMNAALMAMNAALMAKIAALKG

P2-AA-12HGe-Q = target: T21, P2-AA-12HGe-Q; details: mean of both orientations
T21 chain: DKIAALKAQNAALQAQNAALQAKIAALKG

P2-AA-12HGe-R = target: T22, P2-AA-12HGe-R; details: mean of both orientations
T22 chain: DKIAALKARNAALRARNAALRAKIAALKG

P2-AA-12HGe-S = target: T23, P2-AA-12HGe-S; details: mean of both orientations
T23 chain: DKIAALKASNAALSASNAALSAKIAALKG

P2-AA-12HGe-T = target: T24, P2-AA-12HGe-T; details: mean of both orientations
T24 chain: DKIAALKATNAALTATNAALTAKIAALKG

P2-AA-12HGe-W = target: T25, P2-AA-12HGe-W; details: mean of both orientations
T25 chain: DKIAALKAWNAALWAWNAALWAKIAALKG

P2-AA-1HAA-D = target: T26, P2-AA-1HAA-D; details: mean of both orientations
T26 chain: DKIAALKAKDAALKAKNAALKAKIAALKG

P2-AA-1HAA-E = target: T27, P2-AA-1HAA-E; details: mean of both orientations
T27 chain: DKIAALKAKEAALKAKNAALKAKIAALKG

P2-AA-1HAA-H = target: T28, P2-AA-1HAA-H; details: mean of both orientations
T28 chain: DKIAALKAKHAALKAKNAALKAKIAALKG

P2-AA-1HAA-I = target: T29, P2-AA-1HAA-I; details: mean of both orientations
T29 chain: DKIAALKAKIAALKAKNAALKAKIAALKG

P2-AA-1HAA-R = target: T30, P2-AA-1HAA-R; details: mean of both orientations
T30 chain: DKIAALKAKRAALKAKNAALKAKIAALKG

P2-AA-1HAA-S = target: T31, P2-AA-1HAA-S; details: mean of both orientations
T31 chain: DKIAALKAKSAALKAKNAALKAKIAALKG

P2-AA-1HAA-T = target: T32, P2-AA-1HAA-T; details: mean of both orientations
T32 chain: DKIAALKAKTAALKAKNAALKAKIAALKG

P2-AA-1HAA-V = target: T33, P2-AA-1HAA-V; details: mean of both orientations
T33 chain: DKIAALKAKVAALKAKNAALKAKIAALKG

P2-AA-1HGe-A = target: T34, P2-AA-1HGe-A; details: mean of both orientations
T34 chain: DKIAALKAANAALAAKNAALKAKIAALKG

P2-AA-1HGe-D = target: T35, P2-AA-1HGe-D; details: mean of both orientations
T35 chain: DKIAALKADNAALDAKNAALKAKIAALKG

P2-AA-1HGe-M = target: T36, P2-AA-1HGe-M; details: mean of both orientations
T36 chain: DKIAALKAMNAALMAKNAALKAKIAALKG

P2-AA-1HGe-Q = target: T37, P2-AA-1HGe-Q; details: mean of both orientations
T37 chain: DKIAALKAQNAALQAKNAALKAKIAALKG

P2-AA-1HGe-T = target: T38, P2-AA-1HGe-T; details: mean of both orientations
T38 chain: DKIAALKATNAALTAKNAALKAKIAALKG

P2-AA-1HGe-W = target: T39, P2-AA-1HGe-W; details: mean of both orientations
T39 chain: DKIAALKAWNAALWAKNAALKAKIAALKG

P2-AA = target: T40, P2-AA; details: mean of both orientations
T40 chain: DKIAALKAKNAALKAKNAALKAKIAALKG

P3-AA = target: T41, P3-AA; details: mean of both orientations
T41 chain: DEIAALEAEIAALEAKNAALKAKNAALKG

P4-AA = target: T42, P4-AA; details: mean of both orientations
T42 chain: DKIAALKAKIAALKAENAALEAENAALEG

P7-AA = target: T43, P7-AA; details: mean of both orientations
T43 chain: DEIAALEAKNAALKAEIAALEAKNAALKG

P8-AA = target: T44, P8-AA; details: mean of both orientations
T44 chain: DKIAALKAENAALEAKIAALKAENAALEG

P9-AA = target: T45, P9-AA; details: mean of both orientations
T45 chain: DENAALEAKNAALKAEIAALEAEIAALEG

zCON9_A = target: T46, zCON9_A
T46 chain: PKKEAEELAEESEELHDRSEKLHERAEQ

zCON9_B = target: T47, zCON9_B; details: mean of both orientations
T47 chain: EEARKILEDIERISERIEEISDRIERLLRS

zCON9_D = target: T48, zCON9_D; details: mean of both orientations
T48 chain: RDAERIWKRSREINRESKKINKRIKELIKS

Question: For DEIAALEAENAALEAENAALEAEIAALEG [P1-AA], which interaction score (P1-AA) is on record?
Answer: -1.9

Question: And the interaction score (P10-AA)?
Answer: -0.307

Question: What about the interaction score (P11-AA) of the same binder?
Answer: -1.27

Question: What about the interaction score (P12-AA) of the same binder?
Answer: -0.335

Question: And the interaction score (P2-AA-12HAA-D)?
Answer: -1.91

Question: And the interaction score (P2-AA-12HAA-E)?
Answer: -0.168

Question: What about the interaction score (P2-AA-12HAA-H) of the same binder?
Answer: 1.67

Question: What about the interaction score (P2-AA-12HAA-I) of the same binder?
Answer: 1.38

Question: And the interaction score (P2-AA-12HAA-K)?
Answer: 1.32

Question: And the interaction score (P2-AA-12HAA-L)?
Answer: 0.342

Question: What about the interaction score (P2-AA-12HAA-R) of the same binder?
Answer: 1.86

Question: And the interaction score (P2-AA-12HAA-S)?
Answer: 1.74

Question: And the interaction score (P2-AA-12HAA-T)?
Answer: 1.34

Question: What about the interaction score (P2-AA-12HAA-V) of the same binder?
Answer: 1.26

Question: And the interaction score (P2-AA-12HAA-Y)?
Answer: 1.57

Question: What about the interaction score (P2-AA-12HGe-A) of the same binder?
Answer: 1.83

Question: And the interaction score (P2-AA-12HGe-D)?
Answer: -1.71

Question: What about the interaction score (P2-AA-12HGe-E) of the same binder?
Answer: 0.914

Question: What about the interaction score (P2-AA-12HGe-H) of the same binder?
Answer: 2.06

Question: What about the interaction score (P2-AA-12HGe-M) of the same binder?
Answer: 1.8

Question: What about the interaction score (P2-AA-12HGe-Q) of the same binder?
Answer: 1.62

Question: What about the interaction score (P2-AA-12HGe-R) of the same binder?
Answer: 2.37

Question: And the interaction score (P2-AA-12HGe-S)?
Answer: 0.568

Question: What about the interaction score (P2-AA-12HGe-T) of the same binder?
Answer: 1.19

Question: And the interaction score (P2-AA-12HGe-W)?
Answer: 1.66

Question: What about the interaction score (P2-AA-1HAA-D) of the same binder?
Answer: 1.71

Question: And the interaction score (P2-AA-1HAA-E)?
Answer: 1.78

Question: And the interaction score (P2-AA-1HAA-H)?
Answer: 2.1

Question: And the interaction score (P2-AA-1HAA-I)?
Answer: 2.01

Question: And the interaction score (P2-AA-1HAA-R)?
Answer: 1.51

Question: What about the interaction score (P2-AA-1HAA-S) of the same binder?
Answer: 1.81

Question: What about the interaction score (P2-AA-1HAA-T) of the same binder?
Answer: 1.69

Question: What about the interaction score (P2-AA-1HAA-V) of the same binder?
Answer: 1.86

Question: And the interaction score (P2-AA-1HGe-A)?
Answer: 2.03

Question: What about the interaction score (P2-AA-1HGe-D) of the same binder?
Answer: 1.9

Question: And the interaction score (P2-AA-1HGe-M)?
Answer: 1.87

Question: What about the interaction score (P2-AA-1HGe-Q) of the same binder?
Answer: 1.97

Question: What about the interaction score (P2-AA-1HGe-T) of the same binder?
Answer: 2.12

Question: And the interaction score (P2-AA-1HGe-W)?
Answer: 2.42

Question: What about the interaction score (P2-AA) of the same binder?
Answer: 2.11

Question: What about the interaction score (P3-AA) of the same binder?
Answer: -0.804

Question: What about the interaction score (P4-AA) of the same binder?
Answer: -1.71

Question: What about the interaction score (P7-AA) of the same binder?
Answer: -1.7

Question: What about the interaction score (P8-AA) of the same binder?
Answer: -1.57

Question: And the interaction score (P9-AA)?
Answer: -1.49

Question: What about the interaction score (zCON9_A) of the same binder?
Answer: -1.8

Question: And the interaction score (zCON9_B)?
Answer: -1.67

Question: And the interaction score (zCON9_D)?
Answer: -2.59
